Patent publication US20240209100A1 (DIAGONAL THERAPEUTICS, published 2024)

B1: DGL298 (bispecific antibody, V domains shown)
V domain 1: QVQLVESGGGLVQAGGSLRLSCAASGRTFSSYDMGWFRQAPGKEREFVAALRWSGGSTSYADSVKGRFTISRDNAKNTVYLHMNSLKPEDTAVYYCAATLETDSGTYWADYWGQGTQVTVSS
V domain 2: QVQLVESGGGLVLPGESLRLSCVVSGTIDNINSMGWYRQAPGKQRELVAYITKLGSANYADSVEGRFTISRDNAKKTVHLQMNSLKPEDTAVYYCHANERGRITWAQGTQVTVSS
B2: DGL299 (bispecific antibody, V domains shown)
V domain 1: EVQLVESGGGLVQPGGSLRLSCAASGSIFSINAMGWYRQAPGKQREVVATSTGGGMTNYADSVKGRFTISRDNAKNTVYLQMNSLKPEDTAVYYCNADKDPFFPGDYWGQGTQVTVSS
V domain 2: B1 V domain 2
B3: DGL300 (bispecific antibody, V domains shown)
V domain 1: QVQLQESGGGLVQPGGSLRLSCAASGSIFSTKGLGWYRQAPGEQRELVAGISSAGWIFYTQSVKGRFTMSRDNAKNTVYLQMNSLKPEDTAVYYCNSAQSGVPLRSWGQGTQVTVAS
V domain 2: B1 V domain 2
B4: DGL301 (bispecific antibody, V domains shown)
V domain 1: QVQLQESGGGLVQPGGSARLSCVASGIIFNDYHMGWYRQAPGKQRDLVAGITAGGSTTYADSVKGRFTISRDNAKHTVYLQMNNLSPEDTAVYYCNTFYNAILDWGKGTLVTVSS
V domain 2: B1 V domain 2
B5: DGL302 (bispecific antibody, V domains shown)
V domain 1: QVQLVESGGGLVQAGGSLRLSCAASGRTFSKHAMGWFRQAPGKEREFVAAIDWSGGSTYYADSVKGRFTISRDNAKNTVYLQMDSLKPEDTAVYYCAADSYTDYAQLWLPELESEYDYWGQGTQVTVSS
V domain 2: B1 V domain 2
B6: DGL303 (bispecific antibody, V domains shown)
V domain 1: QVQLQESGGGLVQPGGSLRLSCAASGFIFSNWYMRWVRQAPGEGLEWVSSINSGGDDTDYADSVKGRFTISRDNAKGTLYLQMHSLKPEDTALYYCERGADRVRGQGTQVTVSS
V domain 2: B1 V domain 2
B7: DGL304 (bispecific antibody, V domains shown)
V domain 1: B1 V domain 1
V domain 2: QVQLQESGGGLVQPGGSLGLSCAASGIKISVNSMAWYRQAPGERREMVAVISSGGSAVYADSVKGRFTISRDNAKNMVYLQMNSLKPEDTAVYYCHPGSAAYRDYWGQGTQVTVSS
B8: DGL305 (bispecific antibody, V domains shown)
V domain 1: B2 V domain 1
V domain 2: B7 V domain 2
B9: DGL306 (bispecific antibody, V domains shown)
V domain 1: B5 V domain 1
V domain 2: B7 V domain 2
B10: DGL307 (bispecific antibody, V domains shown)
V domain 1: QVQLVESGGGLVQAGGSLRLSCAASGRTFSSYTMGWFRQAPGKEREFVAAISWSAGRTYYADSVKGRFTISRDNAKNTVYLQMNSLKPEDTAVYFCAAEEAPDWAPIDCSGYGCLSLYDYWGQGTQVTVSS
V domain 2: B7 V domain 2
B11: DGL308 (bispecific antibody, V domains shown)
V domain 1: B1 V domain 1
V domain 2: EVQLVESGGGVAQAGGSLRLSCAASITSFSLNTMGYYRQLPGKQRELVAVESSSGITNYADSVKGRFTISRDGAKNTVFLQMNSLTPEDTAVYYCGGKLFGRDFWGQGTQVTVSS
B12: DGL309 (bispecific antibody, V domains shown)
V domain 1: B4 V domain 1
V domain 2: B11 V domain 2
B13: DGL310 (bispecific antibody, V domains shown)
V domain 1: B5 V domain 1
V domain 2: B11 V domain 2
B14: DGL311 (bispecific antibody, V domains shown)
V domain 1: B10 V domain 1
V domain 2: B11 V domain 2
B15: DGL312 (bispecific antibody, V domains shown)
V domain 1: B1 V domain 1
V domain 2: QVQLVESGGGLVQAGGSLRLSCAASGMFFSIGEMGWYRQAPGKQREMVARITRDGRINYADSVEGRFTASRNVAKTTLFLQMNSLKPEDTANYQCTVRRWDEEYWGKGTLVTVSD
B16: DGL313 (bispecific antibody, V domains shown)
V domain 1: B2 V domain 1
V domain 2: B15 V domain 2
B17: DGL314 (bispecific antibody, V domains shown)
V domain 1: B3 V domain 1
V domain 2: B15 V domain 2
B18: DGL315 (bispecific antibody, V domains shown)
V domain 1: B4 V domain 1
V domain 2: B15 V domain 2
B19: DGL316 (bispecific antibody, V domains shown)
V domain 1: B5 V domain 1
V domain 2: B15 V domain 2
B20: DGL317 (bispecific antibody, V domains shown)
V domain 1: B6 V domain 1
V domain 2: B15 V domain 2

Biological target: T1, IL-18 receptor (IL-18Rα/IL-18Rβ) overexpressed on HEK-Blue IL-18 cells (Homo sapiens (Human), UniProt Q13478 19-541; O95256 20-599)
T1 sequence 1: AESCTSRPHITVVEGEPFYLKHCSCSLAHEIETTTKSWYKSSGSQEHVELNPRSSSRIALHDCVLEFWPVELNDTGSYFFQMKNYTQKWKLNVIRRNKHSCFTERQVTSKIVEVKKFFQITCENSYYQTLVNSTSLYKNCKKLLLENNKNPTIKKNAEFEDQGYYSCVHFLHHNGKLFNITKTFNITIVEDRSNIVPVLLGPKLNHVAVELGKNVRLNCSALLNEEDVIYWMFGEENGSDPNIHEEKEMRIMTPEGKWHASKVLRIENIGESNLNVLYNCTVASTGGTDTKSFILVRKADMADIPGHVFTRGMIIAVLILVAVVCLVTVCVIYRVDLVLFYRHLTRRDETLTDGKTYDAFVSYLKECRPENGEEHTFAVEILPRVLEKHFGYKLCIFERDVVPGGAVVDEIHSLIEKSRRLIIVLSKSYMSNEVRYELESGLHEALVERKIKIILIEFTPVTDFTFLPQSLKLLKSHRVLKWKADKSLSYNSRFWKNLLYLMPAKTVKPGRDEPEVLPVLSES
T1 sequence 2: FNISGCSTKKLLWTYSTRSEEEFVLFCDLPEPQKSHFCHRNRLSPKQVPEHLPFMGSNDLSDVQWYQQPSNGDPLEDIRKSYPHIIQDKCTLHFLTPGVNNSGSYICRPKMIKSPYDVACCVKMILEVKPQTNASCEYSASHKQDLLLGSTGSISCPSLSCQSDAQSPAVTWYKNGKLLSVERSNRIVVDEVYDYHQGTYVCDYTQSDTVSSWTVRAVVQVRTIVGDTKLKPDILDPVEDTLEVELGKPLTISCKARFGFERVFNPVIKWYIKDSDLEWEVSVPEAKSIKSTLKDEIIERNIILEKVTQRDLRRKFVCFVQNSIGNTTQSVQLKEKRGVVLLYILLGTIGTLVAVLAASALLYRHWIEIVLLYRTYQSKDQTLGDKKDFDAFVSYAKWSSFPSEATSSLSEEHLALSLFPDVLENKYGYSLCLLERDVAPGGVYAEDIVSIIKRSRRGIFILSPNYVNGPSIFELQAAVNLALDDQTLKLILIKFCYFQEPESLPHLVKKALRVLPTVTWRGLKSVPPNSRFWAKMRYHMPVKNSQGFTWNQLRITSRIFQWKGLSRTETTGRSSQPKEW
Experiment: cell-based or functional assay

Binder | HEK-Blue IL-18: Abs 405 | HEK-Blue IL-18: Fold over Background
B1 | 0.97 Abs | 4.2 fold
B2 | 0.91 Abs | 4 fold
B3 | 1.07 Abs | 4.7 fold
B4 | 0.66 Abs | 2.9 fold
B5 | 1.18 Abs | 5.2 fold
B6 | 1.02 Abs | 4.4 fold
B7 | 1.32 Abs | 5.7 fold
B8 | 0.25 Abs | 1.1 fold
B9 | 1.41 Abs | 6.2 fold
B10 | 0.35 Abs | 1.5 fold
B11 | 1.48 Abs | 6.4 fold
B12 | 0.23 Abs | 1 fold
B13 | 2.7 Abs | 11.8 fold
B14 | 0.79 Abs | 3.4 fold
B15 | 0.63 Abs | 2.7 fold
B16 | 0.62 Abs | 2.7 fold
B17 | 0.83 Abs | 3.6 fold
B18 | 0.58 Abs | 2.5 fold
B19 | 0.58 Abs | 2.5 fold
B20 | 0.99 Abs | 4.3 fold
